The text below walks through data of US20250034212A1, “PEPTIDE” (PEPTIDREAM INC., priority 2021, published 2025).

Starred links: 1 amine or outer side, 2 acyl side, 3 side chain; linkers in the order of their positions; H or OH if unused. Positions of bridges follow the written chain, without caps; N, C: chain ends. Non-standard residues stand in square brackets, D forms with d. KCOmeglumine = N6-(methyl-((2S,3R,4R,5R)-2,3,4,5,6-pentahydroxyhexyl)carbamoyl)-L-lysine, CN(C[C@H](O)[C@@H](O)[C@H](O)[C@H](O)CO)C(=O)NCCCC[C@H](N[*:1])C(=O)[*:2]; KCOpipzaa = N6-(4-(carboxymethyl)piperazine-1-carbonyl)-L-lysine, O=C(NCCCC[C@H](N[*:1])C(=O)[*:2])N1CCN(CC(=O)[*:3])CC1; 1Nal = N[C@@H](Cc1cccc2ccccc12)C(=O)O; Gly(NCH2CH2Ph) = O=C(O)CNCCc1ccccc1; 4Pal = N[C@@H](Cc1ccncc1)C(=O)O

This assay addresses recombinant human TGF-β1 (R&D systems) (human, UniProt P01137 279-390). Briefly: cell-based or functional assay.

Chain of recombinant human TGF-β1 (R&D systems) (P01137 279-390 limits assumed): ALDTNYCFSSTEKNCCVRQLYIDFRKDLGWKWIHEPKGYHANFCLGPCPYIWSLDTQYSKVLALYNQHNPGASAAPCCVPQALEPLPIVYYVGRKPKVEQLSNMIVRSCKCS

B1: TGFb1_025 (peptide)
peptide: {CH2CO}-F[1Nal]V[KCOmeglumine]NV[4Pal]D[KCOpipzaa][Gly(NCH2CH2Ph)]V[1Nal]YH[KCOpipzaa]CG-NH2
modifications: thioether N-16
SMILES: CC(C)[C@@H]1NC(=O)CN(CCc2ccccc2)C(=O)[C@H](CCCCNC(=O)N2CCN(CC(=O)O)CC2)NC(=O)[C@H](CC(=O)O)NC(=O)[C@H](Cc2ccncc2)NC(=O)[C@H](C(C)C)NC(=O)[C@H](CC(N)=O)NC(=O)[C@H](CCCCNC(=O)N(C)C[C@H](O)[C@@H](O)[C@H](O)[C@H](O)CO)NC(=O)[C@H](C(C)C)NC(=O)[C@H](Cc2cccc3ccccc23)NC(=O)[C@H](Cc2ccccc2)NC(=O)CSC[C@@H](C(=O)NCC(N)=O)NC(=O)[C@H](CCCCNC(=O)N2CCN(CC(=O)O)CC2)NC(=O)[C@H](Cc2c[nH]cn2)NC(=O)[C@H](Cc2ccc(O)cc2)NC(=O)[C@H](Cc2cccc3ccccc23)NC1=O
For the molecule B1, the SBE reporter % inhibition, peptide 0.062 nM came to 4.81%; the SBE reporter % inhibition, peptide 0.185 nM is 18.4%; the SBE reporter % inhibition, peptide 0.56 nM worked out at 43.3%; the SBE reporter % inhibition, peptide 1.7 nM amounted to 77.5%. Further, the SBE reporter % inhibition, peptide 5.0 nM was found to be 94.7% and the SBE reporter % inhibition, peptide 15.0 nM worked out at 99.4%.

B2: TGFb1_030 (peptide)
peptide: {CH2CO}-F[1Nal]V[KCOmeglumine]NV[4Pal]D[KCOmeglumine][Gly(NCH2CH2Ph)]V[1Nal]YHECG-NH2
modifications: thioether N-16
SMILES: CC(C)[C@@H]1NC(=O)CN(CCc2ccccc2)C(=O)[C@H](CCCCNC(=O)N(C)C[C@H](O)[C@@H](O)[C@H](O)[C@H](O)CO)NC(=O)[C@H](CC(=O)O)NC(=O)[C@H](Cc2ccncc2)NC(=O)[C@H](C(C)C)NC(=O)[C@H](CC(N)=O)NC(=O)[C@H](CCCCNC(=O)N(C)C[C@H](O)[C@@H](O)[C@H](O)[C@H](O)CO)NC(=O)[C@H](C(C)C)NC(=O)[C@H](Cc2cccc3ccccc23)NC(=O)[C@H](Cc2ccccc2)NC(=O)CSC[C@@H](C(=O)NCC(N)=O)NC(=O)[C@H](CCC(=O)O)NC(=O)[C@H](Cc2c[nH]cn2)NC(=O)[C@H](Cc2ccc(O)cc2)NC(=O)[C@H](Cc2cccc3ccccc23)NC1=O
Regarding B2, the SBE reporter % inhibition, peptide 0.062 nM was found to be 10.9%; the SBE reporter % inhibition, peptide 0.185 nM was 14.3%; the SBE reporter % inhibition, peptide 0.56 nM stood at 29.9%; the SBE reporter % inhibition, peptide 1.7 nM came to 52.5%. Moreover, the SBE reporter % inhibition, peptide 5.0 nM is 80.8% and the SBE reporter % inhibition, peptide 15.0 nM was found to be 95.2%.

B3: TGFb1_020 (peptide)
peptide: {CH2CO}-F[1Nal]V[KCOmeglumine]NV[4Pal]DD[Gly(NCH2CH2Ph)]V[1Nal]YH[KCOpipzaa]CG-NH2
modifications: thioether N-16
SMILES: CC(C)[C@@H]1NC(=O)CN(CCc2ccccc2)C(=O)[C@H](CC(=O)O)NC(=O)[C@H](CC(=O)O)NC(=O)[C@H](Cc2ccncc2)NC(=O)[C@H](C(C)C)NC(=O)[C@H](CC(N)=O)NC(=O)[C@H](CCCCNC(=O)N(C)C[C@H](O)[C@@H](O)[C@H](O)[C@H](O)CO)NC(=O)[C@H](C(C)C)NC(=O)[C@H](Cc2cccc3ccccc23)NC(=O)[C@H](Cc2ccccc2)NC(=O)CSC[C@@H](C(=O)NCC(N)=O)NC(=O)[C@H](CCCCNC(=O)N2CCN(CC(=O)O)CC2)NC(=O)[C@H](Cc2c[nH]cn2)NC(=O)[C@H](Cc2ccc(O)cc2)NC(=O)[C@H](Cc2cccc3ccccc23)NC1=O
With B3, the SBE reporter % inhibition, peptide 0.062 nM stood at 8.5%; the SBE reporter % inhibition, peptide 0.185 nM worked out at 15.8%; the SBE reporter % inhibition, peptide 0.56 nM turned out to be 36.3%; the SBE reporter % inhibition, peptide 1.7 nM came to 70.4%. In addition, the SBE reporter % inhibition, peptide 5.0 nM is 89.3% and the SBE reporter % inhibition, peptide 15.0 nM amounted to 96.9%.

B4: TGFb1_026 (peptide)
peptide: {CH2CO}-F[1Nal]V[KCOmeglumine]NV[4Pal]D[KCOmeglumine][Gly(NCH2CH2Ph)]V[1Nal]YH[KCOpipzaa]CG-NH2
modifications: thioether N-16
SMILES: CC(C)[C@@H]1NC(=O)CN(CCc2ccccc2)C(=O)[C@H](CCCCNC(=O)N(C)C[C@H](O)[C@@H](O)[C@H](O)[C@H](O)CO)NC(=O)[C@H](CC(=O)O)NC(=O)[C@H](Cc2ccncc2)NC(=O)[C@H](C(C)C)NC(=O)[C@H](CC(N)=O)NC(=O)[C@H](CCCCNC(=O)N(C)C[C@H](O)[C@@H](O)[C@H](O)[C@H](O)CO)NC(=O)[C@H](C(C)C)NC(=O)[C@H](Cc2cccc3ccccc23)NC(=O)[C@H](Cc2ccccc2)NC(=O)CSC[C@@H](C(=O)NCC(N)=O)NC(=O)[C@H](CCCCNC(=O)N2CCN(CC(=O)O)CC2)NC(=O)[C@H](Cc2c[nH]cn2)NC(=O)[C@H](Cc2ccc(O)cc2)NC(=O)[C@H](Cc2cccc3ccccc23)NC1=O
For B4, the SBE reporter % inhibition, peptide 0.062 nM worked out at 6.85%; the SBE reporter % inhibition, peptide 0.185 nM worked out at 17.8%; the SBE reporter % inhibition, peptide 0.56 nM was determined as 41.4%; the SBE reporter % inhibition, peptide 1.7 nM was determined as 74.3%. Also, the SBE reporter % inhibition, peptide 5.0 nM was 93.4% and the SBE reporter % inhibition, peptide 15.0 nM came to 98%.

B5: TGFb1_024 (peptide)
peptide: {CH2CO}-F[1Nal]V[KCOmeglumine]NV[4Pal]DE[Gly(NCH2CH2Ph)]V[1Nal]YH[KCOpipzaa]CG-NH2
modifications: thioether N-16
SMILES: CC(C)[C@@H]1NC(=O)CN(CCc2ccccc2)C(=O)[C@H](CCC(=O)O)NC(=O)[C@H](CC(=O)O)NC(=O)[C@H](Cc2ccncc2)NC(=O)[C@H](C(C)C)NC(=O)[C@H](CC(N)=O)NC(=O)[C@H](CCCCNC(=O)N(C)C[C@H](O)[C@@H](O)[C@H](O)[C@H](O)CO)NC(=O)[C@H](C(C)C)NC(=O)[C@H](Cc2cccc3ccccc23)NC(=O)[C@H](Cc2ccccc2)NC(=O)CSC[C@@H](C(=O)NCC(N)=O)NC(=O)[C@H](CCCCNC(=O)N2CCN(CC(=O)O)CC2)NC(=O)[C@H](Cc2c[nH]cn2)NC(=O)[C@H](Cc2ccc(O)cc2)NC(=O)[C@H](Cc2cccc3ccccc23)NC1=O
Take B5: the SBE reporter % inhibition, peptide 0.062 nM is 5.79%; the SBE reporter % inhibition, peptide 0.185 nM came to 16.6%; the SBE reporter % inhibition, peptide 0.56 nM is 45%; the SBE reporter % inhibition, peptide 1.7 nM turned out to be 80.2%. Moreover, the SBE reporter % inhibition, peptide 5.0 nM amounted to 95.5% and the SBE reporter % inhibition, peptide 15.0 nM amounted to 98.9%.

B6: TGFb1_022 (peptide)
peptide: {CH2CO}-F[1Nal]VVNV[4Pal]D[KCOpipzaa][Gly(NCH2CH2Ph)]V[1Nal]YH[KCOpipzaa]CG-NH2
modifications: thioether N-16
SMILES: CC(C)[C@@H]1NC(=O)CN(CCc2ccccc2)C(=O)[C@H](CCCCNC(=O)N2CCN(CC(=O)O)CC2)NC(=O)[C@H](CC(=O)O)NC(=O)[C@H](Cc2ccncc2)NC(=O)[C@H](C(C)C)NC(=O)[C@H](CC(N)=O)NC(=O)[C@H](C(C)C)NC(=O)[C@H](C(C)C)NC(=O)[C@H](Cc2cccc3ccccc23)NC(=O)[C@H](Cc2ccccc2)NC(=O)CSC[C@@H](C(=O)NCC(N)=O)NC(=O)[C@H](CCCCNC(=O)N2CCN(CC(=O)O)CC2)NC(=O)[C@H](Cc2c[nH]cn2)NC(=O)[C@H](Cc2ccc(O)cc2)NC(=O)[C@H](Cc2cccc3ccccc23)NC1=O
For the molecule B6, the SBE reporter % inhibition, peptide 0.062 nM turned out to be 6.49%; the SBE reporter % inhibition, peptide 0.185 nM is 20.8%; the SBE reporter % inhibition, peptide 0.56 nM is 53.8%; the SBE reporter % inhibition, peptide 1.7 nM was 85.2%. Besides, the SBE reporter % inhibition, peptide 5.0 nM was found to be 97.1% and the SBE reporter % inhibition, peptide 15.0 nM amounted to 99.5%.

B7: TGFb1_019 (peptide)
peptide: {CH2CO}-F[1Nal]V[KCOpipzaa]NV[4Pal]DD[Gly(NCH2CH2Ph)]V[1Nal]YH[KCOpipzaa]CG-NH2
modifications: thioether N-16
SMILES: CC(C)[C@@H]1NC(=O)CN(CCc2ccccc2)C(=O)[C@H](CC(=O)O)NC(=O)[C@H](CC(=O)O)NC(=O)[C@H](Cc2ccncc2)NC(=O)[C@H](C(C)C)NC(=O)[C@H](CC(N)=O)NC(=O)[C@H](CCCCNC(=O)N2CCN(CC(=O)O)CC2)NC(=O)[C@H](C(C)C)NC(=O)[C@H](Cc2cccc3ccccc23)NC(=O)[C@H](Cc2ccccc2)NC(=O)CSC[C@@H](C(=O)NCC(N)=O)NC(=O)[C@H](CCCCNC(=O)N2CCN(CC(=O)O)CC2)NC(=O)[C@H](Cc2c[nH]cn2)NC(=O)[C@H](Cc2ccc(O)cc2)NC(=O)[C@H](Cc2cccc3ccccc23)NC1=O
Regarding B7, the SBE reporter % inhibition, peptide 0.062 nM was found to be 5.21%; the SBE reporter % inhibition, peptide 0.185 nM was 11.3%; the SBE reporter % inhibition, peptide 0.56 nM amounted to 30.2%; the SBE reporter % inhibition, peptide 1.7 nM amounted to 61.6%. Also, the SBE reporter % inhibition, peptide 5.0 nM amounted to 87.8% and the SBE reporter % inhibition, peptide 15.0 nM amounted to 96.4%.

B8: TGFb1_023 (peptide)
peptide: {CH2CO}-F[1Nal]VVNV[4Pal]D[KCOmeglumine][Gly(NCH2CH2Ph)]V[1Nal]YH[KCOpipzaa]CG-NH2
modifications: thioether N-16
SMILES: CC(C)[C@@H]1NC(=O)CN(CCc2ccccc2)C(=O)[C@H](CCCCNC(=O)N(C)C[C@H](O)[C@@H](O)[C@H](O)[C@H](O)CO)NC(=O)[C@H](CC(=O)O)NC(=O)[C@H](Cc2ccncc2)NC(=O)[C@H](C(C)C)NC(=O)[C@H](CC(N)=O)NC(=O)[C@H](C(C)C)NC(=O)[C@H](C(C)C)NC(=O)[C@H](Cc2cccc3ccccc23)NC(=O)[C@H](Cc2ccccc2)NC(=O)CSC[C@@H](C(=O)NCC(N)=O)NC(=O)[C@H](CCCCNC(=O)N2CCN(CC(=O)O)CC2)NC(=O)[C@H](Cc2c[nH]cn2)NC(=O)[C@H](Cc2ccc(O)cc2)NC(=O)[C@H](Cc2cccc3ccccc23)NC1=O
Regarding B8, the SBE reporter % inhibition, peptide 0.062 nM worked out at 8.58%; the SBE reporter % inhibition, peptide 0.185 nM stood at 24.4%; the SBE reporter % inhibition, peptide 0.56 nM amounted to 49.7%; the SBE reporter % inhibition, peptide 1.7 nM worked out at 82.3%. In addition, the SBE reporter % inhibition, peptide 5.0 nM amounted to 96% and the SBE reporter % inhibition, peptide 15.0 nM came out at 99.5%.
